According to IntAct's records for PubMed 29039417:

B1: BBSome complex member BBS2 (Homo sapiens), Q9BXC9 (parent)
chain: MLLPVFTLKLRHKISPRMVAIGRYDGTHPCLAAATQTGKVFIHNPHTRNQHVSASRVFQSPLESDVSLLSINQAVSCLTAGVLNPELGYDALLVGTQTNLLAYDVYNNSDLFYREVADGANAIVLGTLGDISSPLAIIGGNCALQGFNHEGSDLFWTVTGDNVNSLALCDFDGDGKKELLVGSEDFDIRVFKEDEIVAEMTETEIVTSLCPMYGSRFGYALSNGTVGVYDKTSRYWRIKSKNHAMSIHAFDLNSDGVNELITGWSNGKVDARSDRTGEVIFKDNFSSAIAGVVEGDYRMDGHIQLICCSVDGEIRGYLPGTAEMRGNLMDTSAEQDLIRELSQKKQNLLLELRNYEENAKAELASPLNEADGHRGIIPANTRLHTTLSVSLGNETQTAHTELRISTSNDTIIRAVLIFAEGIFTGESHVVHPSIHNLSSSICIPIVPPKDVPVDLHLKAFVGYRSSTQFHVFESTRQLPRFSMYALTSLDPASEPISYVNFTIAERAQRVVVWLGQNFLLPEDTHIQNAPFQVCFTSLRNGGHLHIKIKLSGEITINTDDIDLAGDIIQSMASFFAIEDLQVEADFPVYFEELRKVLVKVDEYHSVHQKLSADMADHSNLIRSLLVGAEDARLMRDMKTMKSRYMELYDLNRDLLNGYKIRCNNHTELLGNLKAVNQAIQRAGRLRVGKPKNQVITACRDAIRSNNINTLFKIMRVGTASS
partner: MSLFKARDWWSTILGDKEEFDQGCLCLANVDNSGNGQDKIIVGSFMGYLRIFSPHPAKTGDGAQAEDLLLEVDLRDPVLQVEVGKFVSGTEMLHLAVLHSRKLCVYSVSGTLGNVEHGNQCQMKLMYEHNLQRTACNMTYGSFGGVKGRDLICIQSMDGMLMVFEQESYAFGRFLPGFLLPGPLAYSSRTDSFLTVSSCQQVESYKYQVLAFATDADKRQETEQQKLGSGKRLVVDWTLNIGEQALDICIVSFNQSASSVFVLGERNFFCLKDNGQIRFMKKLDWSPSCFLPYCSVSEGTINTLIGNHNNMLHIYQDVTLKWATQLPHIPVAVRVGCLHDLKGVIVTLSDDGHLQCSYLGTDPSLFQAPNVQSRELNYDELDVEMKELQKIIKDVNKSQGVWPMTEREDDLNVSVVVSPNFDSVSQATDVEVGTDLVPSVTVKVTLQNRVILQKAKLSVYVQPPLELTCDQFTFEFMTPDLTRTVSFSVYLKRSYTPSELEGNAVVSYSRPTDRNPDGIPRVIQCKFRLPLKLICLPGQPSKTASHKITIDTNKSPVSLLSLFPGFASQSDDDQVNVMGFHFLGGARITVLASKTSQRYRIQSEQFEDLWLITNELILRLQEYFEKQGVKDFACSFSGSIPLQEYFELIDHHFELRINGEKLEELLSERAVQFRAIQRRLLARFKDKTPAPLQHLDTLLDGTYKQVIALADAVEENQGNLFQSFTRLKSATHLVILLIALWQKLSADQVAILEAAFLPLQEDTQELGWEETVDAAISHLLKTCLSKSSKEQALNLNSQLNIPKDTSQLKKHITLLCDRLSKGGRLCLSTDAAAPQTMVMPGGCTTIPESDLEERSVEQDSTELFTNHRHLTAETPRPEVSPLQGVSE

Variants of: B1
Conditions: with pthb1_human BBS9, Q3SYG4

Variant | effect of a mutation on the interaction
L457K | disrupting interaction strength
L457A | with no effect
L457C | disrupting interaction strength
L457E | disrupting interaction strength
S440A | with no effect
S440K | with no effect
S440E | with no effect
P447A | with no effect
P447K | with no effect
P447E | with no effect
H470A | with no effect
H470K | with no effect
H470E | with no effect
G425E | with no effect
G425A | with no effect
G425K | with no effect
L437E | with no effect
L437K | disrupting interaction strength
L437A | with no effect
P452A | with no effect
P452E | with no effect
P452K | with no effect
F460A | disrupting interaction strength
F460E | disrupting interaction strength

Variant | effect of a mutation on the interaction
F460K | with no effect
D454E | with no effect
D454A | with no effect
D454K | with no effect
H428E | with no effect
H428K | with no effect
H428A | with no effect
V471E | with no effect
V471A | disrupting interaction strength
H456A | with no effect
H456E | with no effect
H456K | with no effect
Q468E | with no effect
Q468K | with no effect
Q468A | with no effect
P444A | with no effect
P444K | with no effect
P444E | with no effect
F418K | with no effect
S438E | with no effect
S438K | with no effect
S438A | with no effect
S438F | disrupting interaction strength
I434K | with no effect

Variant | effect of a mutation on the interaction
I434E | with no effect
I434A | with no effect
P448A | with no effect
P448E | with no effect
P448K | with no effect
E426K | with no effect
E426A | with no effect
P432K | with no effect
P432L | disrupting interaction strength
P432E | with no effect
P432A | with no effect
G462D | disrupting interaction strength
G462S | disrupting interaction strength
G462E | with no effect
G462A | with no effect
G462K | with no effect
H435K | with no effect
H435E | with no effect
H435A | with no effect
E420K | with no effect
E420A | with no effect
L455P | disrupting interaction strength
L455K | disrupting interaction strength
L455A | with no effect

Variant | effect of a mutation on the interaction
I443A | disrupting interaction strength
I443E | disrupting interaction strength
I443K | disrupting interaction strength
T467K | with no effect
T467E | with no effect
T467A | with no effect
I422K | with no effect
I422E | with no effect
I422A | with no effect
S439K | with no effect
S439A | disrupting interaction strength
S439N | disrupting interaction strength
S439E | disrupting interaction strength
S433A | with no effect
S433E | with no effect
S433K | with no effect
R464A | with no effect
R464K | with no effect
R464E | with no effect
S465A | with no effect
S465E | with no effect
S465K | with no effect
V429A | with no effect
V429E | with no effect

Variant | effect of a mutation on the interaction
V429K | with no effect
S466K | with no effect
S466A | with no effect
S466E | disrupting interaction strength
S427A | with no effect
S427E | with no effect
S427K | with no effect
V451E | with no effect
V451A | with no effect
V451K | with no effect
A419E | with no effect
A419K | with no effect
I441A | with no effect
I441K | with no effect
I441E | with no effect
K449E | with no effect
K449R | disrupting interaction strength
K449A | with no effect
N436A | with no effect
N436K | with no effect
N436E | with no effect
V461M | disrupting interaction strength
V461K | disrupting interaction strength
V461E | disrupting interaction strength

Variant | effect of a mutation on the interaction
V461A | disrupting interaction strength
A459T | disrupting interaction strength
A459E | disrupting interaction strength
A459K | disrupting interaction strength
V446A | with no effect
V446E | with no effect
V446K | with no effect
K458E | with no effect
K458A | with no effect
F423K | with no effect
F423E | with no effect
F423A | with no effect
H431K | with no effect
H431A | with no effect
H431R | disrupting interaction strength
H431E | with no effect
V430E | with no effect
V430A | disrupting interaction strength
V430K | with no effect
T424A | with no effect
T424E | with no effect
T424K | with no effect
V453E | with no effect
V453A | with no effect

Variant | effect of a mutation on the interaction
V453K | disrupting interaction strength
Y463A | with no effect
Y463K | with no effect
Y463E | with no effect
G421A | with no effect
G421E | with no effect
G421K | with no effect
F469K | disrupting interaction strength
F469A | with no effect
F469E | disrupting interaction strength
F469L | disrupting interaction strength
D450A | with no effect
D450K | with no effect
D450L | disrupting interaction strength
D450E | with no effect
C442A | with no effect
C442K | with no effect
C442E | with no effect
I445T | disrupting interaction strength
I445Q | disrupting interaction strength
I445E | disrupting interaction strength
I445A | disrupting interaction strength
I445K | disrupting interaction strength
